# Assay results as given in patent US11357847B2, “Modified HSV gD protein and vaccine containing same” (KM Biologics Co., Ltd., priority 2017, dated 2022).
# Tested on: various anti-gD2 antibodies
# Test: Reactivity of gD variants with anti-gD2 antibodies (competitive ELISA)
# Type: binding, human
# Conditions: immobilized gD variant
# From the text: Each anti-gD2 monoclonal antibody and each gD variant were expressed using an Expi293 expression system.
Molecule,Reactivity with anti-gD2 antibody 1,Reactivity with anti-gD2 antibody 5,Reactivity with anti-gD2 antibody 13,Reactivity with anti-gD2 antibody 72,Reactivity with anti-gD2 antibody 75,Reactivity with anti-gD2 antibody 78,Reactivity with anti-gD2 antibody 82
gD1-315V (protein) KYALADPSLKMADPNRFRGKNLPVLDQLTDPPGVKRVYHIQPSLEDPFQPPSIPITVYYAVLERACRSVLLHAPSEAPQIVRGASDEARKHTYNLTIAWYRMGDNCAIPITVMEYTECPYNKSLGVCPIRTQPRWSYYDSFSAVSEDNLGFLMHAPAFETAGTYLRLVKINDWTEITQFILEHRARASCKYALPLRIPPAACLTSKAYQQGVTVDSIGMLPRFIPENQRTWALYSLKIAGWHGPKPPYTSTLLPPELSDTTNATQPELVPEDPEDSALLEDPAGTVSSQIPPNWHIPSIQDVAPHHAPAAPSNPGHHHHHH,+ ((+): 70% or more),+ ((+): 70% or more),+ ((+): 70% or more),+ ((+): 70% or more),+ ((+): 70% or more),+ ((+): 70% or more),+ ((+): 70% or more)
gD1-315v3: gD1-315 with glycochain introduced at P50 (SC-F) (protein) KYALADPSLKMADPNRFRGKNLPVLDQLTDPPGVKRVYHIQPSLEDPFQNASIPITVYYAVLERACRSVLLHAPSEAPQIVRGASDEARKHTYNLTIAWYRMGDNCAIPITVMEYTECPYNKSLGVCPIRTQPRWSYYDSFSAVSEDNLGFLMHAPAFETAGTYLRLVKINDWTEITQFILEHRARASCKYALPLRIPPAACLTSKAYQQGVTVDSIGMLPRFIPENQRTVALYSLKIAGWHGPKPPYTSTLLPPELSDTTNATQPELVPEDPEDSALLEDPAGTVSSQIPPNWHIPSIQDVAPHHAPAAPSNPGHHHHHH,+ ((+): 70% or more),− ((−): less than 30%),+ ((+): 70% or more),− ((−): less than 30%),− ((−): less than 30%),− ((−): less than 30%),+ ((+): 70% or more)
"gD1-315v5V: gD1-315 with glycochains at SC-A, SC-F and V231W (protein) KYALADPSLKMADPNRFRGKNLPVLDQLTDPPGVKRVYHIQPSLEDPFQNASIPITVYYAVLERACRSVLLHAPSEAPQIVRGASDEARKHTYNLTIAWYRMGDNCAIPITVMEYTECPYNKSLGVCPIRTQPRWSYYDSFSAVSEDNLGFLMHAPAFETAGTYLRLVKINDWTEITQFILEHRANASCKYALPLRIPPAACLTSKAYQQGVTVDSIGMLPRFIPENQRTWALYSLKIAGWHGPKPPYTSTLLPPELSDTTNATQPELVPEDPEDSALLEDPAGTVSSQIPPNWHIPSIQDVAPHHAPAAPSNPGHHHHHH",+ ((+): 70% or more),− ((−): less than 30%),+ ((+): 70% or more),± ((±): 30% or more and less than 70%),± ((±): 30% or more and less than 70%),− ((−): less than 30%),+ ((+): 70% or more)
